# From the supplement of paper PMC9170038
# Test system: K4 kissing-loop RNA reporter
# Experiment: apparent KD of K4 kissing-loop reporter; higher = weaker reporter binding
# Details: Eterna round: R107; input ligand: FMN 200 uM
# Method: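 RNA-MaP round R107: designed RNA switches with theophylline, tryptophan, arginine or FMN aptamers are transcribed on-chip within common flanks. They are titrated with a labelled K4 kissing-loop RNA reporter in RNA-MaP buffer (100 mM Tris pH 7.5, 80 mM KCl, 4 mM MgCl2), without ligand or with the indicated ligand. Median apparent KD per design.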
# 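Note: bound reporter read as fluorescence of individual clusters on recovered sequencing chips by microscopy, with normalized cluster intensities fitted with a binding model.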
row,Sequence,apparent KD of K4 kissing-loop reporter [nM]
1,AGUCCGCUCCAAGGAUAUAGUCCGGCUGCGCGUCAGUGAUGUUGAAGAAGUAUCGCGUCUCUAUAGCUAGAAGGUGGCGCAAUUG [theeternabot_sameState_KL_FMN_B_20],715
2,UUUAGGAGCGGUGUUGAUUAGGGAGCGGAAGGAGCGCCGAUUAUGGCAGGUAGGUCGCCGGAAUGUAGUGAUGUUGCAUAGAGGG [ExArgA.V],214
3,UAUAGACAAGUGAUGUUUGUCAUAUCCGAAGGAGCGUCUUCUAAGACAGGUAGGUCGCGGAUUAAUUUUGUUAUGAUACUAUUUA [JR_SSArginiA_Sub016],122
4,UUGAGUGAUGUUCAAUUAAUGUGCAACGAUACCAGCUCAUAUGCUAGCCCUUGGCAGCGUGGUAACGUAAUUUUAUCAAAUGAUA [theeternabot_exclusion_KL_Theo_A_39],232
5,GGUUAGUGAUGUUGAUCAAAUCGCGGUGAUACCAGCAACACAUCGUGCCCUUGGCAGCACGGCAAAAUGAAUGCGGUCGAAUGCG [theeternabot_exclusion_KL_Theo_A_19],487
6,UCCUGCAAUCUGCCACGAAAGUGGGUUGAUACCAGAGUCGAAAGACUCCCUUGGCAGCGAGUGAUGUUCGUUGCAGGUGAAUAAA [MatMod 9 - Jieux - Exclusion - Theophylline A],118
7,GUCCCGAGUGAUGUUCGGGUCGUUCGGGAAGGAGCGCCCGGAAGGGCAGGUAGGUCGCCCGGAUCCCUCAGGUAACUGAGGGACC [#2 Same State - Arginine A Attempt #25 (HarryS)],483
8,AAUGUAUGGCACAUGAGUGAUGUUCAUGUCCGAGGACCGGUACGGCCGCCACUCGGUCCUGGGUUCUUAUUACUAUACAUUAAUG [KL-XTryp-A2 #analogue],161
9,GCCGUACGCAUGGAUACCAGAUGGCACUAUUUUCUCCCAGAGUGAUGUUCUGGCCUGCCUAUCCCUUGGCAGCCAUGCGUACGGC,806
10,AGAUUCGACACGGCCGCCACUUCCAGUGGCUGGUGUCAUGGUGCACGUGAGUGAUGUUUAUGUGGAAGGACCGGGUGUUGAGUCU [KL-XTryp-B2 #analogue],652
11,AAACGUUGGUGCGAUACCAGCUGAUCGGAAACGAUCUUGCUGGAGUGAUGUUCCAAGUAAAGCCCUUGGCAGCGCACCGACGAAA [MAT - Same State Theophlline B - Mod of Eli - D22],92.5
12,AGGCCCGGCCGAAAGGCCGGGCCAAGAGAUACCAGCAGCGAAAGCUGCCCUUGGCAGCUCACUUAGUGAUGUUAAGAAUAGAACA [SS Theo A Tesla 1],538
13,UUGUCCGGGUGAUGGUCAUCACGUGGCGGGCGAGGACCGGUACGGCCGCCACUCGACUUUGCAGUGAUGUUGCAAACCGGACAAU [Exclusion - Tryptophan A (Freestyle 23)],231
14,AUUUAAUGUAUAGAUUAUAUACAUUAUUCAGAGGAUAUGCAUUGAAGCAGAAGGCUGGGUGUAGUGAUGUUGCAAUUUUAAUUUA [whbob_SS_FMNA__2th172],118
15,GUGCGGCUAGUGAUGUUGGUUGUGUGGGAAGGAGCGCAGAUUCAUGCAGGUAGGUCGCCCACACGUCUGAAAGGAUGAUAAUUCA [#12 K4 Arginine A Same State],409
16,GACGGGUUCCUGCUCAAUCCGUCGCAUGAUCGAGGACCGGUACGGCCGCCACUCGAGGCCAUGCCGUACGAGUGAUGUUCGUGCG [Xeon],438

# Same assay, conditions: Eterna round: R107; input ligand: arginine 13.2 mM
row,Sequence,apparent KD of K4 kissing-loop reporter [nM]
1,AUGGUUGUCGUAGGAUAUGUAGGUAAUUCCUAUAGCAGUGAUGUUGCUAAUAUCUUGGAAGAAGGAACAGAAGGACGAUAACCAC [KL-SSFMN-B1 #analogue],109
2,AGGCCACACAGCGAGUGAUGUUUGCGUUAUCGAGGACCGGUACGGCCGCCACUCGGCCUUUAGCGCCUUACCAAUUAGGUGUUGC [theeternabot_sameState_KL_Trp_A_46],430
3,UAUAUACAUUUAUUAAUUAAAGGUUCAGAAGGAGCGUGAAUUAACACAGGUAGGUCGCUGAGCGAGUGAUGUUCGCUAUAUGGAA [JR_ExcArginiA_Sub006],69.3
4,UCGGUAUAGUGAUGUUAUAUAGAGAGUGAUACCAGUUUAGAGAGAAACCCUUGGCAGCAUAGAAGAGUAUCAUUGGAGGAGGAGG [#20 K4 Theophylline A Exclusion],417
5,UGAUACCAGACGGCCGCCACUGGUGCAUGUCAAAGACAUGCUAACCAAAUCGUGGAGUGAUGUUCCAGGACCGGGUCUGGUAUCU [TrypBX 22 #SwitchBubble #Palindromic #StaticStem],207
6,AAUGUACAGGGAAGGAGCGCCGUCCAGUGAUGUUGGAGUUAAAUACCAGUGAUGUUGGUUAGGCAGGUAGGUCGCCCUAUAGUAU [#07 K4 Arginine B Exclusion],92.9
7,AGUAGUUGGACGGCCGCCACUAGAACGGCUUUGCCAAAGGCAGAGCACUAGAGUGAUGUUCUAGCUAGGACCGGGUCCAACUACA [Omei KL Tryp B SS A v3],204
8,UGGGAUGUUAAAGGAUAUAGCAAGUGAUAUAAGAAAGUGAGUGAUGUUUAUGUAGGUGAUGAUAUGUUAGAAGGUUAACAAAACG [abcdefgh],158
9,UAUAUAGUGACGGCCGCCACUAUAUUAAUGUUUUUGUUAGAGUGAUGUUUUGUUUAAUAUUUUUAUAGGACCGGGUUAUAUGUUA [zsqqxmullin],338
10,GGUAGCAUGGCGGCCGCCACUAACAACCUCACCUGCGGCUCGAUCGAGUGAUGUUCGAACGCAAUUAGGACCGGGCCAUGCUACC,64.8
